Assay results reported in US10954275.
Changes are numbered by the printed parent chain. In names and notes the source's numbering stands.

B1: Protein G EHHE C2 domain (PrG-EHHE; A24E, K28H, V29H, N35E), displayed on the yeast cell surface (designed binder, not shown: large carriers)
chain: TTYKLVINGKTLKGETTTEAVDAETAEHHFKQYAEDNGVDGEWTYDDATKTFTVTE
B2: Protein G ERH C2 domain (PrG-ERH; A24E, K28R, V29H), displayed on the yeast cell surface (designed binder, not shown: large carriers)
chain: B1 chain with H28R, E35N
B3: Protein G EHHD C2 domain (PrG-EHHD; A24E, K28H, V29H, N35D), displayed on the yeast cell surface (designed binder, not shown: large carriers)
chain: B1 chain with E35D
B4: Protein G EHH C2 domain (PrG-EHH; A24E, K28H, V29H), displayed on the yeast cell surface (designed binder, not shown: large carriers)
chain: B1 chain with E35N

Tests used:
[1] = molecular target: AlexaFluor 647-conjugated human IgG (Jackson Immuno Research) (human); test: flow cytometry on yeast-displayed PrG, ~200 nM IgG, pH 5.6
[2] = molecular target: AlexaFluor 647-conjugated human IgG (Jackson Immuno Research) (human); test: flow cytometry on yeast-displayed PrG, ~200 nM IgG, pH 8.2
[3] = molecular target: AlexaFluor 647-conjugated human IgG (Jackson Immuno Research) (human); test: flow cytometry, IgG titration on yeast-displayed PrG, pH 8.2 against pH 5.6
[4] = molecular target: AlexaFluor 647-conjugated human IgG (Jackson Immuno Research) (human); test: flow cytometry, titration of AlexaFluor 647 human IgG on yeast-displayed PrG, pH 5.6
[5] = molecular target: AlexaFluor 647-conjugated human IgG (Jackson Immuno Research) (human); test: flow cytometry, titration of AlexaFluor 647 human IgG on yeast-displayed PrG, pH 8.2
[6] = molecular target: AlexaFluor 647-conjugated human IgG (Jackson Immuno Research) (human); test: flow cytometry on yeast-displayed PrG with labelled human IgG at pH 5.6 and pH 8.2 (FIG. 6)
[7] = molecular target: AlexaFluor 647-conjugated human IgG (Jackson Immuno Research) (human); test: flow cytometry on yeast-displayed PrG with labelled human IgG (FIG. 6), against WT PrG

| Binder | Percent IgG bound at IgG concentration of ~200 nM [1] | Percent IgG bound at IgG concentration of ~200 nM [2] | fold change in binding constant, pH 5.6 to pH 8.2 [3] | Kd [4] | Kd [5] | fold increase of the pH dependent switch [6] | fold increase of IgG binding affinity [7] |
| --- | --- | --- | --- | --- | --- | --- | --- |
| B1 | 80% | 10% | 40 fold | 0.027 µM | 1.17 µM | > 2 fold | – |
| B2 | – | – | – | – | – | – | > 4 fold |
| B3 | 65% | 7% | 20 fold | 0.096 µM | 1.79 µM | – | – |
| B4 | – | – | – | – | – | – | > 4 fold |
